This is an account of results in paper PMC3201852 (Nucleic Acids Research, 2011).

Where only a bound is given, the exact number is not on record here.

Assay in all cases: pull-down
Assay [1] has as its target GST-fused human eIF2β (GST-eIF2β) (human) (UniProt P20042).
Assay [2] has as its target GST-5MP1-7A (7 alanine substitutions in AA-box 2) (human) (UniProt Q9Y6E2).
The target of assay [3] is human eIF2 purified from HeLa cells (human, UniProt P05198 1-315; P20042 1-333; P41091 1-472).
Sequence of human eIF2 purified from HeLa cells (human, UniProt P05198 1-315; P20042 1-333; P41091 1-472) (P05198 whole entry, chain 1 of 3): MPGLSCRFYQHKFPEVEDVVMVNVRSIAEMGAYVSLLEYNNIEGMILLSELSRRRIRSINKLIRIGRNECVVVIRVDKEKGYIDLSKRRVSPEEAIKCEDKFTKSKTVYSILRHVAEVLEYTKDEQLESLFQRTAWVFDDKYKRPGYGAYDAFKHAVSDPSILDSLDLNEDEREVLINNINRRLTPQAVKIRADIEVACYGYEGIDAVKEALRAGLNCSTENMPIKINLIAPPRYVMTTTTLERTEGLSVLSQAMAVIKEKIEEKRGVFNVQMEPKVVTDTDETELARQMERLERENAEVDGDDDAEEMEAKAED
Sequence of human eIF2 purified from HeLa cells (human, UniProt P05198 1-315; P20042 1-333; P41091 1-472) (P20042 whole entry, chain 2 of 3): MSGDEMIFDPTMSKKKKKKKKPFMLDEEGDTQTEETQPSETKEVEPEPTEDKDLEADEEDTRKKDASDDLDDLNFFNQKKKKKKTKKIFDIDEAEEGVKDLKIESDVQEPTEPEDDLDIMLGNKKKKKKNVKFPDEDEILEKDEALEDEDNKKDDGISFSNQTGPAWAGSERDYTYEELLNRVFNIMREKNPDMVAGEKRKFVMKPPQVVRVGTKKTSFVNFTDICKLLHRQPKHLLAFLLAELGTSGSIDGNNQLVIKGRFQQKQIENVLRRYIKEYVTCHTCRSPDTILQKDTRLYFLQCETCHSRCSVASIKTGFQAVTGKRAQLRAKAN
Sequence of human eIF2 purified from HeLa cells (human, UniProt P05198 1-315; P20042 1-333; P41091 1-472) (P41091 whole entry, chain 3 of 3): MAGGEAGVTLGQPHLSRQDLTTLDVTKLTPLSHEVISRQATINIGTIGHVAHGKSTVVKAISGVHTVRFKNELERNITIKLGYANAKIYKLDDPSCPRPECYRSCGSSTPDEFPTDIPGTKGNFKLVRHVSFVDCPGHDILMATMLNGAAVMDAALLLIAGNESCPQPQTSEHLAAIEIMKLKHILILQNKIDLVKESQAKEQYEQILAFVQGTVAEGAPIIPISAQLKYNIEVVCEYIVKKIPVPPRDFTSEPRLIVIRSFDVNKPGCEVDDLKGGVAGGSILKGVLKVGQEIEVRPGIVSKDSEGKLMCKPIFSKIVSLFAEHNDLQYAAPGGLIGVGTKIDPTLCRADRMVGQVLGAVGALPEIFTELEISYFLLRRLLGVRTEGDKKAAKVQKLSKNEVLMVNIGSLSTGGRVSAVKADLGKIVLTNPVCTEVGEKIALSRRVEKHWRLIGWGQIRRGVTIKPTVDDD

Sequence of GST-fused human eIF2β (GST-eIF2β) (human) (P20042 whole entry, the tested form may be a part): as the sequence (P20042 whole entry, chain 2 of 3) above

In turn, “FL-5MP1-7A (FLAG-tagged 5MP1 with the AA-box 2 mutation 7A) (from UniProt Q9Y6E2 1-419) (natural protein)” registered a fold reduction of binding against wild-type FL-5MP1 in assay [1] of 2 fold.

With “human eIF2 purified from HeLa cells (from UniProt P05198 1-315; P20042 1-333; P41091 1-472) (complex)”, in assay [2], the fold reduction of binding against wild-type GST-5MP1 was > 2 fold.

B1: GST-5MP1 fusion protein (human eIF5-mimic protein 1) (natural protein, UniProt Q9Y6E2 1-419, looked up)
chain: MNKHQKPVLTGQRFKTRKRDEKEKFEPTVFRDTLVQGLNEAGDDLEAVAKFLDSTGSRLDYRRYADTLFDILVAGSMLAPGGTRIDDGDKTKMTNHCVFSANEDHETIRNYAQVFNKLIRRYKYLEKAFEDEMKKLLLFLKAFSETEQTKLAMLSGILLGNGTLPATILTSLFTDSLVKEGIAASFAVKLFKAWMAEKDANSVTSSLRKANLDKRLLELFPVNRQSVDHFAKYFTDAGLKELSDFLRVQQSLGTRKELQKELQERLSQECPIKEVVLYVKEEMKRNDLPETAVIGLLWTCIMNAVEWNKKEELVAEQALKHLKQYAPLLAVFSSQGQSELILLQKVQEYCYDNIHFMKAFQKIVVLFYKADVLSEEAILKWYKEAHVAKGKSVFLDQMKKFVEWLQNAEEESESEGEEN
Take B1: the binding result in assay [3] was “binds”.
